Measurements as given in US8420776B2, “Ube2G2 binding domain in the ubiquitin ligase gp78 and methods of use thereof” (The United States of America, as Represented by the …, priority 2004, dated 2013).
Substitutions are numbered along the chain they refer to.

Key:
[1] = target: T1, lysine 48-linked (K48) tetra-ubiquitin (Homo sapiens, UniProt P0CG47); assay: Tetra-ubiquitin binding to GST fusions; conditions: anti-ubiquitin immunoblot
T1 construct: 1 μg K48 tetra-ubiquitin produced as described (Piotrowski et al., 1997); made in house
Method: GST fusions were purified from E. Coli. Binding was carried out using equi-molar amount of fusion proteins measured by Commassie blue staining. Generally, 20 picomoles/sample were used. In vitro translated E2 was generated by coupled transcription and translation using 35S methionine in either wheat germ or rabbit reticulocyte lysate. Binding assays using in vitro translated E2 was carried out by incubating GST protein pre-bound to Glutathione-sepharose 4B with […] of ^35S-methionine labeled E2 in binding buffer (25 mM Tris-HCl, pH 7.4; 50 mM NaCl, 5 mM DTT; and 0.5% NP-40) overnight at 4° C. Beads were washed with binding buffer and resolved by SDS-PAGE under reducing conditions. Analysis was by Storm PhosphoImager (Applied Biosystems, Foster City, Calif.). Direct binding assays used wild type His6-MmUbc7 (His6-Ube2G2) and Glutathione-sepharose bound GST fusions. Beadbound GST protein was incubated with 100 ng purified His6-MmUbc7 in binding buffer and washed and eluted as above. After transfer to Hybond-P (Amersham Biosciences) binding was assessed with anti-His6 followed by Enhanced Chemiluminescence ECL; Pierce). Ubiquitin binding studies were performed with binding and washing as above using 1 μg K48 tetra-ubiquitin produced as described (Piotrowski et al., 1997). Detection was by anti-ubiquitin immunoblotting.

[2] = tested on: ERAD substrate CD3-δ; assay: CD3-δ level in co-transfected cells by immunoblotting; assay type: cell-based; conditions: for reversal of G2BD-induced CD3-δ stabilization by co-transfected Ube2G2: cells expressing Flag-tagged gp78 574-643, 2 or 4 μg Ube2G2 plasmid; for effect on CD3-δ level (stabilization): co-transfection with CD3-δ, immunoblot
Method: (§1) Transfections of HT1080, NIH 3T3 and HEK 293T cells were carried out ˜24 hr after plating using Polyfect (Qiagen, Valencia, Calif.) and cells harvested after ˜48 hr. J558 cells were transfected by electroporation using Bio-rad GENE pulser II at settings of 250 v, 950uF. Vector without insert was used to equalize total plasmid. In most experiments 0.15 μg of pEGFP-C1 served as an internal control. For experiments not involving immunoprecipitation, 6×10^5 cells were plated in 6 well plates and cell lysis was with Mammalian Protein Extraction Reagent (Pierce). For immunoprecipitation, 2.4×10^6 cells were seeded in 100 mm dishes and cells were lysed in RIPA buffer (1×PBS, 1% Nonidet P40. 0.5% sodium deoxycholate, 0.1% SDS). Lysis buffers were supplemented with Protease Inhibitor Cocktail (Sigma) and 10 mM iodoacetamide. Supernatants were analyzed after a 10,000×g centrifugation using standard techniques for immunoprecipitation, SDS-PAGE, immunoblotting and ECL. Treatment of cells with MG132 (Sigma) was at 50 μM for eight hr. Cycloheximnide was used at 50 μg/ml. All cells were collected at the end of the six hr chase.
FIG. 7 depicts the stabilization of CD3-δ protein in cells transfected with the G2BD, but not with the G2BD with amino acids 579-584 (of SEQ ID NO:2) mutated. HEK 293T cells were transfected with the ERAD substrate CD3-δ along with the indicated GFP fusions of gp78. The left and right sides are two separate experiments.
To test this, GFP fusions of either a minimal E2 binding domain (GFP-574-611) or a more extended region that includes the C-terminus of gp78 (GFP-574-643) were evaluated (FIG. 21A). […] To assess this further, the C-terminal region of gp78 was fused to the eight amino acid Flag tag. […] Mdm2 is a RING finger E3 for both itself and p53 that is neither an ERAD substrate nor known to utilize Ube2G2 as an E2. […] To establish with certainty that the effect observed with expression of the Ube2G2 binding site is a consequence of binding endogenous E2, and not due to other unanticipated effects, cells were co-transfected with increasing amounts of Ube2G2 (FIG. 21C, lanes 3 and 4). […] These findings clearly establish that the isolated E2 binding site has the potential to markedly alter ERAD of CD3-δ. To ensure the effect observed was not peculiar to one substrate, TCR-α was evaluated (FIG. 21D).

[3] = target: T2, Myc-Ube2G2 (Mus musculus, UniProt P60605); assay: Co-immunoprecipitation with co-expressed Myc-Ube2G2 in cells; assay type: cell-based; conditions: anti-Myc IP, anti-gp78 IB; MG132 8 hr
T2 construct: expressed in transfected cells; host or cells: HEK 293T
T2 sequence (P60605 1-165): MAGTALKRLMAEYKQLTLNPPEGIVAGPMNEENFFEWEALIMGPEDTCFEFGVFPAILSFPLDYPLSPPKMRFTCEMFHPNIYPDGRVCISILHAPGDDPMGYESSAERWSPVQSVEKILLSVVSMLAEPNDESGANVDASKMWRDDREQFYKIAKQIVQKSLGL
Method: as §1
FIG. 5 depicts the results of immunoprecipitation of Ube2G2 (MmUbc7) from HEK 293T cells co-transfected with a plasmid encoding myc-tagged MmUbc7/Ube2G2 together with s plasmid encoding various forms of gp78. HEK 293T cells were transfected with a plasmid encoding myc-tagged MmUbc7/Ube2G2 together with plasmids encoding various forms of gp78. After 48 hours, cells were harvested and co-immuntoprecipitated with an anti-Myc tage. Anti-gp78 was used for detection. “R2M” indicates a mutation of two crucial residues in the RING finger. “T” indicates C terminal truncations at the indicated amino acids. ΔB is the mutation indicated above in FIG. 4 in the context of the full length gp78 and “Cue12M” indicates mutations in the Cue domain of gp78.
To confirm the significance of the Ube2G2 binding site in cells, a variety of mutations and truncations of full-length gp78 were tested for binding of co-expressed Myc-Ube2G2 (FIG. 19A). Cells were treated with the proteasome inhibitor MG132 in an attempt to equalize levels of the various forms of gp78.

B1: 435-507: GST fusion of amino acids 435-507 of gp78, the Cue domain region (protein)
chain: SFSVEVMHTTNILGITQASNSQLNAMAHQIQEMFPQVPYHLVLQDLQLTRSVEITTDNILEGRIQVPFPTQRS
modifications: left off: a dimerising Fc or GST
notes: GST fusion of amino acids 435-507 of gp78, the Cue domain region
[1]
  binding of K48 tetra-ubiquitin: sufficient to bind tetra-ubiquitin

B2: Cue-m1: GST fusion of complete C-terminal region of gp78 with MFP to GGR mutation of residues 467 to 469 (protein)
chain: IRRHKNYLRVVGNMEARFAVATPEELAVNNDDCAICWDSMQAARKLPCGHLFHNSCLRSWLEQDTSCPTCRMSLNIADNNRVREEHQGENLDENLVPVAAAEGRPRLNQHNHFFHFDGSRIASWLPSFSVEVMHTTNILGITQASNSQLNAMAHQIQEGGRQVPYHLVLQDLQLTRSVEITTDNILEGRIQVPFPTQRSDSIRPALNSPVERPSSDQEEGETSAQTERVPLDLSPRLEETLDFGEVEVEPSEVEDFEARGSRFSKSADERQRMLVQRKDELLQQARKRFLNKSSEDDAASESFLPLEGASSDPVTLRRRMLAAAAERRLQKQQTS
modifications: left off: a dimerising Fc or GST
[1]
  binding of K48 tetra-ubiquitin: total loss of ubiquitin binding

B3: Cue-m2: GST-gp78 fusion with VLQDL to RLQVD mutation of residues 476 to 480 (protein)
chain: B2 chain with G159M, G160F, R161P, V168R, D171V, L172D
modifications: left off: a dimerising Fc or GST
[1]
  binding of K48 tetra-ubiquitin: total loss of ubiquitin binding

B4: Ube2G2: ubiquitin conjugating enzyme Ube2G2 expressed from co-transfected plasmid (protein, listed as Homo sapiens)
chain: T2 sequence (P60605 1-165)
[2]
  reversal of G2BD-induced CD3-δ stabilization by co-transfected Ube2G2: dose-dependent reversal of CD3-δ stabilization
[2]; listed as Ube2G2/MmUbc7
  reversal of G2BD-induced CD3-δ stabilization by co-transfected Ube2G2: reversed

B5: GFP-574-643: GFP fusion of a more extended region that includes the C-terminus of gp78, residues 574-643 (protein, listed as Homo sapiens)
chain: SADERQRMLVQRKDELLQQARKRFLNKSSEDDAASESFLPLEGASSDPVTLRRRMLAAAAERRLQKQQTS
[2]
  effect on CD3-δ level (stabilization): dramatically stabilized CD3-δ

B6: Flag-tagged gp78 residues 574-643: C-terminal region of gp78 fused to the eight amino acid Flag tag (protein)
chain: B5 chain
modifications: left off: small tags and cut ends
notes: C-terminal region of gp78 fused to the eight amino acid Flag tag
[2]
  effect on CD3-δ level (stabilization): marked stabilization of CD3-δ

B7: gp78576: gp78 truncated after amino acid 576 of SEQ ID NO:2 (protein, listed as Homo sapiens)
chain: MPLLFLERFPWPSLRTYTGLSGLALLGTIISAYRALSQPEAGPGEPDQLTASLQPEPPAPARPSAGGPRARDVAQYLLSDSLFVWVLVNTACCVLMLVAKLIQCIVFGPLRVSERQHLKDKFWNFIFYKFIFIFGVLNVQTVEEVVMWCLWFAGLVFLHLMVQLCKDRFEYLSFSPTTPMSSHGRVLSLLVAMLLSCCGLAAVCSITGYTHGMHTLAFMAAESLLVTVRTAHVILRYVIHLWDLNHEGTWEGKGTYVYYTDFVMELTLLSLDLMHHIHMLLFGNIWLSMASLVIFMQLRYLFHEVQRRIRRHKNYLRVVGNMEARFAVATPEELAVNNDDCAICWDSMQAARKLPCGHLFHNSCLRSWLEQDTSCPTCRMSLNIADNNRVREEHQGENLDENLVPVAAAEGRPRLNQHNHFFHFDGSRIASWLPSFSVEVMHTTNILGITQASNSQLNAMAHQIQEMFPQVPYHLVLQDLQLTRSVEITTDNILEGRIQVPFPTQRSDSIRPALNSPVERPSSDQEEGETSAQTERVPLDLSPRLEETLDFGEVEVEPSEVEDFEARGSRFSKSAD
[3]
  E2 association of full-length gp78 forms with co-expressed Myc-Ube2G2: loss of E2 binding
